Assay results taken from article PMC4720525.

Biological target: YY1 (Mus musculus, UniProt Q00899 1-414)
Assay: EMSA

YY1, sequence (Q00899 whole entry): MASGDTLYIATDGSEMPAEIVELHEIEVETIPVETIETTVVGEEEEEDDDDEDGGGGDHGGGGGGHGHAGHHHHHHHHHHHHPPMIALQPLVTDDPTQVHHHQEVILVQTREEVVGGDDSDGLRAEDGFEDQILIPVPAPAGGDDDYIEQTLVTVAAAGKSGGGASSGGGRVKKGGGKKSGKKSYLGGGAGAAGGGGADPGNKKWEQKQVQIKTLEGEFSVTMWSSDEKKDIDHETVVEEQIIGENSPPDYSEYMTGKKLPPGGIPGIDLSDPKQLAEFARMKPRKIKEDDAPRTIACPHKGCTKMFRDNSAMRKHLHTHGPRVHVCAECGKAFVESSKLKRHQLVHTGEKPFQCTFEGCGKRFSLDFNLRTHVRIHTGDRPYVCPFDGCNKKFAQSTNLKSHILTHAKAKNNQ

B1: Arid1a promoter 30-bp DNA (dsDNA)
DNA 1: CTCTTCTCTCTTAAAATGGCTGCCTGTCTG
DNA 2: CAGACAGGCAGCCATTTTAAGAGAGAAGAG
- binding result: binds
